From paper PMC4738335, “MatP regulates the coordinated action of topoisomerase IV and MukBEF in chromosome segregation” (Nature Communications, 2016)

T1: MukB Hinge, purified (36 kDa) (E. coli, UniProt P22523 566-863)
T1 construct: MukB, E. coli, residues 566-863 (Hinge construct); printed size 36 kDa; details of purification are in Supplementary Methods; source: E. coli C3013I, pET vector, purified
T1 sequence (looked up): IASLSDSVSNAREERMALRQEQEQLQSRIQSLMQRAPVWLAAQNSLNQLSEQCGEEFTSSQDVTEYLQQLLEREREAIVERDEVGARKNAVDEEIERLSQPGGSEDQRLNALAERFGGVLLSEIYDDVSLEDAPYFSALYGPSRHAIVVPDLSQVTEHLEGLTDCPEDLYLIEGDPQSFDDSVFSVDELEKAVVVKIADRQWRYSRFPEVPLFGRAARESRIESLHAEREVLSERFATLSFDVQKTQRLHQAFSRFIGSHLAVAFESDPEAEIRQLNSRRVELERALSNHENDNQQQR

T2: MukB–Flag (E. coli, UniProt P22523 1-1486)
T2 construct: MukB, E. coli; printed MW with Flag 171.7 kDa; The printed mass fits the whole protein; also called FLAG-tagged MukB
T2 sequence (looked up): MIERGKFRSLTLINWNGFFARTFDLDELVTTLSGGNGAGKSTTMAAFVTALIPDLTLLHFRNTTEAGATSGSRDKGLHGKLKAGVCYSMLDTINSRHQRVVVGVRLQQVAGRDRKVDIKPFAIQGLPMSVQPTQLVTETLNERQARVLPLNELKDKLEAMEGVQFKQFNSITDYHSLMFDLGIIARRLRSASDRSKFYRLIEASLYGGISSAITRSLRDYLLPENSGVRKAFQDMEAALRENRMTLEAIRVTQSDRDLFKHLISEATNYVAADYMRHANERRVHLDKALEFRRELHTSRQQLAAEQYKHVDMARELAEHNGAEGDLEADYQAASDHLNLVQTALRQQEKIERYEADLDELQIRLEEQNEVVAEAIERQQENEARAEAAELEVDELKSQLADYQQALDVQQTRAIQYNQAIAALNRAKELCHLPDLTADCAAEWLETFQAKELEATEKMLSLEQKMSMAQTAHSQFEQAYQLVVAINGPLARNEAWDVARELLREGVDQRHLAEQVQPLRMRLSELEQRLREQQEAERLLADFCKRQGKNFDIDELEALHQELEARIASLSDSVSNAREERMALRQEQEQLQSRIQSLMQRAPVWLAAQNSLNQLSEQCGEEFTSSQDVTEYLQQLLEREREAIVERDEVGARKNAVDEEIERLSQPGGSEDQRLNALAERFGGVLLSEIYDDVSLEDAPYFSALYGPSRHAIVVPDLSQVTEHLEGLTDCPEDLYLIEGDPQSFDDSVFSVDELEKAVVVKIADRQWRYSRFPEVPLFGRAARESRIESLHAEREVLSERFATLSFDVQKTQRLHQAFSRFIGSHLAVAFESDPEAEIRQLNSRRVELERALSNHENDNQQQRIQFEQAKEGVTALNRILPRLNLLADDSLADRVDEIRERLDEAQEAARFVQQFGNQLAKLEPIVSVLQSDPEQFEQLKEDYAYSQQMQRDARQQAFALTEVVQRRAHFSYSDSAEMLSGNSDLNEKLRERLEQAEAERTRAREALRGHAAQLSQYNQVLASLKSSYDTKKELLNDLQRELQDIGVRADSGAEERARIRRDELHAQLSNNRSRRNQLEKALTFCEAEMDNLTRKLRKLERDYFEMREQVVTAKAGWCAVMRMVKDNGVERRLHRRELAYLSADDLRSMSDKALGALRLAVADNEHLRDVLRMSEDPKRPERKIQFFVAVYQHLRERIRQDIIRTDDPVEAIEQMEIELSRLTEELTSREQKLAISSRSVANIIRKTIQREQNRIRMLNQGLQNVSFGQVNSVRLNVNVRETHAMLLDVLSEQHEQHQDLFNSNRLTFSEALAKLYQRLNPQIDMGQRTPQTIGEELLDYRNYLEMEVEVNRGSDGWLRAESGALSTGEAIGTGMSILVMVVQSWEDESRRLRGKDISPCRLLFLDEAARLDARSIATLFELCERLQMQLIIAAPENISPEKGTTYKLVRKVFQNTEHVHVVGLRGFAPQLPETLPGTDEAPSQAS

T3: Hinge–Flag (E. coli, UniProt P22523 566-863)
T3 construct: MukB, E. coli, residues 566-863 (Hinge construct); printed MW with Flag 35.2 kDa; Hinge proteins gave 2 bands on SDS-PAGE, maybe because of proteolytic cleavage; also called FLAG-tagged Hinge
T3 sequence (looked up): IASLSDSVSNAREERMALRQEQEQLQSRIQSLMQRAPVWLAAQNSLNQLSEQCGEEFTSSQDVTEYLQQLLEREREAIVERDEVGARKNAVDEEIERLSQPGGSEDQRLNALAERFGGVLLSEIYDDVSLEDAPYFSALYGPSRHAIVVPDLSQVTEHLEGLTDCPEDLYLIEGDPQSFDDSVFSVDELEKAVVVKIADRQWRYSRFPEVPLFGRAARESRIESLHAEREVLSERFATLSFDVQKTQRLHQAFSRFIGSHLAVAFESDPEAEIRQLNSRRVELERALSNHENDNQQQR

T4: MukB-6×His, purified (E. coli, UniProt P22523 1-1486)
T4 construct: MukB, E. coli; printed MW with 6×His 172.6 kDa; The printed mass fits the whole protein; source: E. coli C3013I, pET vector, purified
T4 sequence (looked up): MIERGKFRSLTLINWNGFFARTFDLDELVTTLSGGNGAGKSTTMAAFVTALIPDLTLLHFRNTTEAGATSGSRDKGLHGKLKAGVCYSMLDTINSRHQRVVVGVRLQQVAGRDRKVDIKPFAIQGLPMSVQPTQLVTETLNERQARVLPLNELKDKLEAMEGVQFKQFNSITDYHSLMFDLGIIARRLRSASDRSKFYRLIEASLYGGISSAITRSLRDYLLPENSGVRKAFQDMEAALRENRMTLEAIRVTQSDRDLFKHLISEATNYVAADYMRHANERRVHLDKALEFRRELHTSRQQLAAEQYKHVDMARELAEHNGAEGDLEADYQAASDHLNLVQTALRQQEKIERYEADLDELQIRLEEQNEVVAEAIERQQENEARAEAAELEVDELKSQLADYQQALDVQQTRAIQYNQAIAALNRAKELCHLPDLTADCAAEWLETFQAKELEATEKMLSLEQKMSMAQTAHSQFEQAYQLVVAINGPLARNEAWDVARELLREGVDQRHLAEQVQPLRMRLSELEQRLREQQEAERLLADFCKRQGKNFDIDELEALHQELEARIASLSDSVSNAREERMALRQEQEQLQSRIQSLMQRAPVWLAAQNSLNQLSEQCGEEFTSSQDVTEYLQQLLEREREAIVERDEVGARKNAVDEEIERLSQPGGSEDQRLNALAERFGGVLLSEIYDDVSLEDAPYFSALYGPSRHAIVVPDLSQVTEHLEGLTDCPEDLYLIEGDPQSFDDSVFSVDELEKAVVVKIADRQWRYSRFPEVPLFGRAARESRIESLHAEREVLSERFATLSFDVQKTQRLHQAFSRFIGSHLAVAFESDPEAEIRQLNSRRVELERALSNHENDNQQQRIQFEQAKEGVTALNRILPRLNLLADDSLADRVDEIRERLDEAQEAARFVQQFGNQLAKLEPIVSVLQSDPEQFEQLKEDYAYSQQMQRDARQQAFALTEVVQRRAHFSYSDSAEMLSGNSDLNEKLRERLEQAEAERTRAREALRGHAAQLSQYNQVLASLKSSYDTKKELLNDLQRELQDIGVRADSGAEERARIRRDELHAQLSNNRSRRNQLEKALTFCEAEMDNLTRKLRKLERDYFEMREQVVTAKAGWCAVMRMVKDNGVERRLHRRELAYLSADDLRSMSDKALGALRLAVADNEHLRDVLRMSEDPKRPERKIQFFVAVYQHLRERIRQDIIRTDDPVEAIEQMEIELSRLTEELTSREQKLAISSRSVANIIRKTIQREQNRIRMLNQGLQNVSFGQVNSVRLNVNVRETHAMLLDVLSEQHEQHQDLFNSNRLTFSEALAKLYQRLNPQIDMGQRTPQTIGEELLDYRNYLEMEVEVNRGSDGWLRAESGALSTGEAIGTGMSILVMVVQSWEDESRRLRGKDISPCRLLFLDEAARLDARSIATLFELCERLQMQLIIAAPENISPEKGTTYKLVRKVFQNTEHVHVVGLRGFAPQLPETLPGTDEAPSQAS

B1: MatPΔC18-6×His, purified (domain or fragment, E. coli, UniProt P0A8N0 1-132, looked up)
chain: MKYQQLENLESGWKWKYLVKKHREGELITRYIEASAAQEAVDVLLSLENEPVLVNGWIDKHMNPELVNRMKQTIRARRKRHFNAEHQHTRKKSIDLEFIVWQRLAGLAQRRGKTLSETIVQLIEDAENKEKY
notes: MatP, E. coli, truncated by its 18 C-terminal amino-acid residues; printed MW with 6×His 18.3 kDa; source: E. coli C3013I, pET vector, purified
B2: MatPΔC18–Flag (domain or fragment, E. coli, UniProt P0A8N0 1-132, looked up)
chain: MKYQQLENLESGWKWKYLVKKHREGELITRYIEASAAQEAVDVLLSLENEPVLVNGWIDKHMNPELVNRMKQTIRARRKRHFNAEHQHTRKKSIDLEFIVWQRLAGLAQRRGKTLSETIVQLIEDAENKEKY
notes: MatP, E. coli, truncated by its 18 C-terminal amino-acid residues; printed MW with Flag 16.9 kDa; also called FLAG-tagged MatPΔC18

Key:
Conditions in all cases: both partners purified
[1] = target: T1, MukB Hinge, purified (36 kDa); test: SEC; Superose 6 10/300 GL; 50 mM HEPES pH 7.5, 100 mM NaCl, 1 mM DTT, 1 mM EDTA, 5 mM MgCl2; MatPΔC18 (73 μM) and/or Hinge (15 μM); fractions on SDS-PAGE
[2] = target: T2, MukB–Flag; test: co-IP; MukB–Flag or Hinge–Flag from cell lysate bound to anti-Flag M2 Affinity gel and washed; purified MatPΔC18-6×His added in 50 mM HEPES pH 7.5, 100 mM NaCl, 45 min, 4 °C; SDS-PAGE
[3] = target: T3, Hinge–Flag; test: as above
[4] = target: T4, MukB-6×His, purified; test: co-IP; MatPΔC18–Flag from cell lysate bound to anti-Flag M2 Affinity gel and washed; purified MukB, MukE, MukF added as indicated in 50 mM HEPES pH 7.5, 100 mM NaCl, 45 min, 4 °C; SDS-PAGE

Binder	binding result [1]	binding result [2]	binding result [3]	binding result [4]
B1	binds	binds	binds	–
B2	–	–	–	binds
